Holding throughout (assay): two-hybrid library CCmax;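 note: natural log of median RNA to DNA barcode read ratio; higher means stronger binding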
One assay concerns the target T1, 4H2742-AA.
T1 chain: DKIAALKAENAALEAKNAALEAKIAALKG
The following applies: mean of both orientations.

The next assay addresses T2, 4H428-AA.
T2 chain: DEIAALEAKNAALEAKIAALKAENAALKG
Conditions: mean of both orientations.

A further assay addresses T3, 4H391-AA.
T3 chain: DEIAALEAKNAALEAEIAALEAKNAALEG
Conditions: mean of both orientations.

In the next assay the target is T4, 4H2991-AA.
T4 chain: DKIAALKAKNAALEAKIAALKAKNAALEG
The following applies: mean of both orientations.

The next assay concerns the target T5, 4H3939-AA.
T5 chain: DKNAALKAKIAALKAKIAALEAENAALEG
The following applies: mean of both orientations.

For another assay, the target named is T6, 4H3029-AA.
T6 chain: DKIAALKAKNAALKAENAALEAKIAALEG
The following applies: mean of both orientations.

Another assay addresses T7, 4H3446-AA.
T7 chain: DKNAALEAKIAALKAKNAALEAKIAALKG
Conditions: mean of both orientations.

The target of a further assay is T8, 4H3066-AA.
T8 chain: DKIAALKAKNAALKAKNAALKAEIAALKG
The following applies: mean of both orientations.

The target of the next assay is T9, 4H497-AA.
T9 chain: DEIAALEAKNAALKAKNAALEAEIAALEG
Conditions: mean of both orientations.

Another assay deals with T10, 4H3666-AA.
T10 chain: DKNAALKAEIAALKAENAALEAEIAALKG
The following applies: mean of both orientations.

The next assay addresses T11, 4H656-AA.
T11 chain: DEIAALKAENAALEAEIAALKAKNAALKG
Conditions: mean of both orientations.

The target of a further assay is T12, 4H3417-AA.
T12 chain: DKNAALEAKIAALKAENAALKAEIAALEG
Conditions: mean of both orientations.

For another assay, the target named is T13, 4H3628-AA.
T13 chain: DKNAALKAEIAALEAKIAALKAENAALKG
Conditions: mean of both orientations.

The target in the next assay is T14, 4H2948-AA.
T14 chain: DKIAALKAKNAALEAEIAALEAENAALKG
The following applies: mean of both orientations.

For a further assay, the target named is T15, 4H3920-AA.
T15 chain: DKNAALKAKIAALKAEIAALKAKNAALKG
Conditions: mean of both orientations.

Another assay addresses T16, 4H478-AA.
T16 chain: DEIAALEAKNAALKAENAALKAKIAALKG
Conditions: mean of both orientations.

The target of a further assay is T17, 4H3709-AA.
T17 chain: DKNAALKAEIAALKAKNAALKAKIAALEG
The following applies: mean of both orientations.

A further assay has as its target T18, 4H3591-AA.
T18 chain: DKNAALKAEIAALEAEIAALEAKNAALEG
Conditions: mean of both orientations.

The target of the next assay is T19, 4H3102-AA.
T19 chain: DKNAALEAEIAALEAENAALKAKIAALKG
Conditions: mean of both orientations.

Another assay concerns the target T20, 4H3121-AA.
T20 chain: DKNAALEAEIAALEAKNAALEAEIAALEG
Conditions: mean of both orientations.

The next assay concerns the target T21, 4H971-AA.
T21 chain: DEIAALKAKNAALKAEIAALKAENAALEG
Conditions: mean of both orientations.

The next assay deals with T22, 4H2283-AA.
T22 chain: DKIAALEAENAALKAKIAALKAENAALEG

For a further assay, the target named is T23, 4H675-AA.
T23 chain: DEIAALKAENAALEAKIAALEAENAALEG
The following applies: mean of both orientations.

In the next assay the target is T24, 4H2713-AA.
T24 chain: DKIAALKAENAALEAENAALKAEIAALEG
The following applies: mean of both orientations.

The next assay deals with T25, P6-AA-12HAA-H.
T25 chain: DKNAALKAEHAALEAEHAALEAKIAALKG
The following applies: mean of both orientations.

Another assay has as its target T26, P6-AA-12HAA-S.
T26 chain: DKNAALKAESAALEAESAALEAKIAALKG
The following applies: mean of both orientations.

The next assay deals with T27, P6-AA-1HAA-N.
T27 chain: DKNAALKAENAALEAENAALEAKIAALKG
The following applies: mean of both orientations.

In another assay the target is T28, P6-AA-12HAA-V.
T28 chain: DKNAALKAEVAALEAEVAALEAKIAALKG
Conditions: mean of both orientations.

Another assay addresses T29, P6-AA-12HAA-L.
T29 chain: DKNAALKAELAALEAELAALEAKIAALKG
The following applies: mean of both orientations.

The target of another assay is T30, P6-AA-12HAA-K.
T30 chain: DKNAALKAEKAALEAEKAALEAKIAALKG
The following applies: mean of both orientations.

For the next assay, the target named is T31, P6-AA-12HAA-T.
T31 chain: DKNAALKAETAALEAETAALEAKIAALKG
The following applies: mean of both orientations.

Another assay concerns the target T32, P6-AA-12HAA-E.
T32 chain: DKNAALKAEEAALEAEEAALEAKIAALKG
The following applies: mean of both orientations.

In another assay the target is T33, P6-AA-12HAA-R.
T33 chain: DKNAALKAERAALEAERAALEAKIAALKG
The following applies: mean of both orientations.

The next assay addresses T34, P6-AA-12HAA-Y.
T34 chain: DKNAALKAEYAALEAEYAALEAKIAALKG
The following applies: mean of both orientations.

The next assay has as its target T35, P6-AA-12HAA-D.
T35 chain: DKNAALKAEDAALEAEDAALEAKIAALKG
The following applies: mean of both orientations.

B1: 4H2283-AA (peptide)
chain: DKIAALEAENAALKAKIAALKAENAALEG
For the molecule B1, the interaction score was -1.21 with 4H2742-AA; -0.691 in the assay with 4H428-AA; -0.595 with 4H391-AA; -1.95 with 4H2991-AA; -1.94 with 4H3939-AA; -1.74 with 4H3029-AA. Also, the interaction score with 4H3446-AA was -1.15; with 4H3066-AA it was -1.63; with 4H497-AA, -1.45; in the assay with 4H3666-AA, -0.868; with 4H656-AA it was 1.84; in the assay with 4H3417-AA, 1.63. Also, the interaction score is -1.32 with 4H3628-AA; 0.785 with 4H2948-AA; -1.54 with 4H3920-AA; -1.52 with 4H478-AA; -1.11 in the assay with 4H3709-AA; -1.46 with 4H3591-AA. Also, the interaction score in the assay with 4H3102-AA was 0.17; with 4H3121-AA, -0.934; with 4H971-AA it was -0.878; in the assay with 4H2283-AA it was 1.25; with 4H675-AA, -0.967; in the assay with 4H2713-AA, -1.19.

B2: P5-AA-12HAA-V (peptide)
chain: DENAALEAKVAALKAKVAALKAEIAALEG
For the molecule B2, the interaction score was 1.34 in the assay with P6-AA-12HAA-H; 1.18 with P6-AA-12HAA-S; -0.708 in the assay with P6-AA-1HAA-N; 2.1 with P6-AA-12HAA-V; 2.29 with P6-AA-12HAA-L; 1.73 with P6-AA-12HAA-K. The interaction score in the assay with P6-AA-12HAA-T was 1.87; with P6-AA-12HAA-E, 1.61; in the assay with P6-AA-12HAA-R it was 1.94; with P6-AA-12HAA-Y, 1.09; in the assay with P6-AA-12HAA-D it was -1.5.

B3: P5-AA-12HAA-S (peptide)
chain: DENAALEAKSAALKAKSAALKAEIAALEG
For the molecule B3, the interaction score with P6-AA-12HAA-H was -1.82; with P6-AA-12HAA-S, -1.65; with P6-AA-1HAA-N it was -1.02; in the assay with P6-AA-12HAA-V, 1.55; with P6-AA-12HAA-L, 0.323; in the assay with P6-AA-12HAA-K it was -1.73. Further, the interaction score is -1.48 with P6-AA-12HAA-T; -1.88 with P6-AA-12HAA-E; -1.81 with P6-AA-12HAA-R; -0.94 with P6-AA-12HAA-Y; -1.65 with P6-AA-12HAA-D.

B4: P5-AA-12HAA-E (peptide)
chain: DENAALEAKEAALKAKEAALKAEIAALEG
On to B4, for which the interaction score in the assay with P6-AA-12HAA-H was -1.89; with P6-AA-12HAA-S it was -1.39; with P6-AA-1HAA-N, -1.74; with P6-AA-12HAA-V, 0.123; in the assay with P6-AA-12HAA-L, -0.949; with P6-AA-12HAA-K, -2.37. The interaction score in the assay with P6-AA-12HAA-T was -1.32; with P6-AA-12HAA-E it was -1.42; with P6-AA-12HAA-R it was -2.01; in the assay with P6-AA-12HAA-Y, -1.59; with P6-AA-12HAA-D it was -1.48.

(Values after publication PMC10397247.)
